This assay relates to chimeric Caspase-9 polypeptide. Nature of the assay: Caspase-9 mutant classes and basal activity (Table 5). The assay is classed as cell-based. The note with it: Caspase-9 mutant class; for IC50: ligand IC50 compared with unmodified chimeric Caspase-9. From the text: Even though homo-dimerization of wild-type initiator Caspase-9 is energetically unfavorable, making them mostly monomers in solution [14-16], the low-level inherent basal activity of unprocessed Caspase-9 [15, 17] is enhanced in the presence of the Apaf-1-based “apoptosome”, its natural allosteric regulator [6]. Moreover, supra-physiological expression levels and/or co-localization could lead to proximity-driven dimerization, further enhancing basal activation. The modified cells of the present application may comprise nucleic acids coding for a chimeric Caspase-9 polypeptide having lower basal signaling activity. Polynucleotides comprising Caspase-9 mutants with lower basal signaling may be expressed in the modified cells used for cell therapy herein. In these examples, the modified cells may include a safety switch, comprising a polynucleotide encoding a lower basal signaling chimeric Caspase-9 polypeptide. In the event of an adverse event following administration of the modified cells comprising the chimeric signaling polypeptides or chimeric antigen receptors herein, Caspase-9 activity may be induced by administering the dimerizer to the patient, thus inducing apoptosis and clearance of some, or all of the modified cells. In some examples, the amount of dimerizer administered may be determined as an amount designed to remove the highest amount, at least 80% or 90% of the modified cells. In other examples, the amount of dimerizer administered may be determined as an amount designed to remove only a portion of the modified cells, in order to alleviate negative symptoms or conditions, while leaving a sufficient amount of therapeutic modified cells in the patient, in order to continue therapy. Methods for using chimeric Caspase-9 polypeptides to induce apoptosis are discussed in PCT Application Number PCT/US2011/037381 by Malcolm K. Brenner et al., titled Methods for Inducing Selective Apoptosis, filed May 20, 2011, and in U.S. patent application Ser. No. 13/112,739 by Malcolm K. Brenner et al., titled Methods for Inducing Selective Apoptosis, filed May 20, 2011, issued Jul. 28, 2015 as U.S. Pat. No. 9,089,520. Chimeric caspase polypeptides having modified basal activity are discussed in PCT Application Serial Number PCT/US2014/022004 by David Spencer et al., titled Modified Caspase Polypeptides and Uses Thereof, filed Mar. 7, 2014, published Oct. 9, 2014 as WO2014/164348, and in U.S. patent application Ser. No. 13/792,135 by David Spencer et al., titled Modified Caspase Polypeptides and Uses Thereof, filed Mar. 7, 2014; and in U.S. patent application Ser. No. 14/640,553 by Spencer et al., filed Mar. 6, 2015. Methods for inducing partial apoptosis of the therapeutic modified cells are discussed in PCT Application Number PCT/US14/040964 by Kevin Slawin et al., titled Methods for Inducing Partial Apoptosis Using Caspase Polypeptides, filed Jun. 4, 2014, published Dec. 11, 2014 as WO2014/197638, and in U.S. patent application Ser. No. 14/296,404 by Kevin Slawin et al., titled Methods for Inducing Partial Apoptosis Using Caspase Polypeptides, filed Jun. 4, 2014. These patent applications and publications are all incorporated by reference herein in their entireties.

Where [1] appears, read: basal (ligand-independent) signaling compared with unmodified chimeric Caspase-9.

Positions count from the first letter of the chain named. Names and notes keep the numbering of the source.

Chain of chimeric Caspase-9 polypeptide (P62942 2-108 F37V limits assumed): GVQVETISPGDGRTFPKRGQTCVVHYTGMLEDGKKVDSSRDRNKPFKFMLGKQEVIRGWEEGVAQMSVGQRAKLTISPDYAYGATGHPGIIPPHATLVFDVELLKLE

B1: N405Q (protein)
chain: GFGDVGALESLRGNADLAYILSMEPCGHCLIINNVNFCRESGLRTRTGSNIDCEKLRRRFSSLHFMVEVKGDLTAKKMVLALLELARQDHGALDCCVVVILSHGCQASHLQFPGAVYGTDGCPVSVEKIVNIFNGTSCPSLGGKPKLFFIQACGGEQKDHGFEVASTSPEDESPGSNPEPDATPFQEGLRTFDQLDAISSLPTPSDIFVSYSTFPGFVSWRDPKSGSWYVETLDDIFEQWAHSEDLQSLLLRVANAVSVKGIYKQMPGCFQFLRKKLFFKTSASRA
As for B1, the IC50 result is given as “higher IC50”. The “Basal Activity” value under setting [1] is recorded as “Decreased”.

B2: F406W (protein)
chain: B1 chain with Q271N, F272W
In the case of B2, the IC50 result is given as “higher IC50”. Further, the “Basal Activity” value under setting [1] is recorded as “Decreased”.

B3: S196A (protein)
chain: B1 chain with S62A, Q271N
Turning to B3, the IC50 entry is reported as “higher IC50”. Besides, the “Basal Activity” value under setting [1] is “Decreased”.

B4: D330G (protein)
chain: B1 chain with D196G, Q271N
In the case of B4, the IC50 entry is reported as “higher IC50”. For the same molecule, the “Basal Activity” value under setting [1] was “Decreased”.

B5: D330N (protein)
chain: B1 chain with D196N, Q271N
Consider B5, for which the IC50 entry is “higher IC50”. In addition, under setting [1], the “Basal Activity” value is on record as “Decreased”.

B6: N405Q-S144A (protein)
chain: B1 chain with S10A
In the case of B6, the IC50 result is given as “higher IC50”. In addition, the “Basal Activity” value under setting [1] was “Decreased”.

B7: F406A (protein)
chain: B1 chain with Q271N, F272A
For B7, the IC50 entry is “higher IC50”. Under setting [1], the “Basal Activity” value is listed as “Decreased”.

B8: D330A-S144D (protein)
chain: B1 chain with S10D, D196A, Q271N
In the case of B8, the IC50 entry was “higher IC50”. Moreover, the “Basal Activity” value under setting [1] is given as “Decreased”.

B9: D330A-S183A (protein)
chain: B1 chain with S49A, D196A, Q271N
B9: the IC50 result is reported as “higher IC50”. The “Basal Activity” value under setting [1] is “Decreased”.

B10: S195A (protein)
chain: B1 chain with S61A, Q271N
Consider B10, for which the IC50 entry is reported as “higher IC50”. For the same molecule, the “Basal Activity” value under setting [1] is recorded as “Decreased”.

B11: N405Q-T317S (protein)
chain: B1 chain with T183S
For the molecule B11, the IC50 result is recorded as “higher IC50”. Further, the “Basal Activity” value under setting [1] was “Decreased”.

B12: F404Y (protein)
chain: B1 chain with F270Y, Q271N
For B12, the IC50 result is on record as “higher IC50”. Moreover, the “Basal Activity” value under setting [1] is given as “Decreased”.

B13: F406Y (protein)
chain: B1 chain with Q271N, F272Y
Take B13: the IC50 result is “higher IC50”. For the same molecule, under setting [1], the “Basal Activity” value was “Decreased”.

B14: D330A-S196A (protein)
chain: B1 chain with S62A, D196A, Q271N
Turning to B14, the IC50 result is on record as “higher IC50”. For the same molecule, the “Basal Activity” value under setting [1] is “Decreased”.

B15: T317A (protein)
chain: B1 chain with T183A, Q271N
Take B15: the IC50 entry is recorded as “higher IC50”. Under setting [1], the “Basal Activity” value is listed as “Decreased”.

B16: N405Q-S144D (protein)
chain: B1 chain with S10D
Take B16: the IC50 result is “higher IC50”. For the same molecule, the “Basal Activity” value under setting [1] is listed as “Decreased”.

B17: N405Q-S196D (protein)
chain: B1 chain with S62D
Consider B17, for which the IC50 entry is “higher IC50”. Also, the “Basal Activity” value under setting [1] was “Decreased”.

B18: D330V (protein)
chain: B1 chain with D196V, Q271N
On to B18, for which the IC50 result is “higher IC50”. The “Basal Activity” value under setting [1] is listed as “Decreased”.

B19: D330A-N405Q (protein)
chain: B1 chain with D196A
Turning to B19, the IC50 result is “higher IC50”. For the same molecule, the “Basal Activity” value under setting [1] is listed as “Decreased”.

B20: S183A (protein)
chain: B1 chain with S49A, Q271N
As for B20, the IC50 result is “higher IC50”. Besides, the “Basal Activity” value under setting [1] is reported as “Decreased”.

B21: L329E (protein)
chain: B1 chain with L195E, Q271N
As to B21, the IC50 entry was “higher IC50”. Under setting [1], the “Basal Activity” value is “Decreased”.

B22: D330S (protein)
chain: B1 chain with D196S, Q271N
With B22, the IC50 result is “higher IC50”. Besides, under setting [1], the “Basal Activity” value is recorded as “Decreased”.

B23: D330A-S144A (protein)
chain: B1 chain with S10A, D196A, Q271N
In the case of B23, the IC50 entry is on record as “higher IC50”. Also, the “Basal Activity” value under setting [1] is given as “Decreased”.

B24: N405Q-S144Aco (protein, UniProt P55211 1-416, looked up, variant N405Q S144A)
chain: MDEADRRLLRRCRLRLVEELQVDQLWDALLSRELFRPHMIEDIQRAGSGSRRDQARQLIIDLETRGSQALPLFISCLEDTGQDMLASFLRTNRQAAKLSKPTLENLTPVVLRPEIRKPEVLRPETPRPVDIGSGGFGDVGALEALRGNADLAYILSMEPCGHCLIINNVNFCRESGLRTRTGSNIDCEKLRRRFSSLHFMVEVKGDLTAKKMVLALLELAQQDHGALDCCVVVILSHGCQASHLQFPGAVYGTDGCPVSVEKIVNIFNGTSCPSLGGKPKLFFIQACGGEQKDHGFEVASTSPEDESPGSNPEPDATPFQEGLRTFDQLDAISSLPTPSDIFVSYSTFPGFVSWRDPKSGSWYVETLDDIFEQWAHSEDLQSLLLRVANAVSVKGIYKQMPGCFQFLRKKLFFKTS
modifications: codon-optimized; in iC9 construct
As to B24, the “Basal Activity” value (mutants marked * = predicted) is on record as “Decreased”.

B25: N405Q-T317Sco (protein, UniProt P55211 1-416, looked up, variant N405Q T317S)
chain: B24 chain with A144S, T317S
modifications: codon-optimized; in iC9 construct
Take B25: under “mutants marked * = predicted”, the “Basal Activity” value is “Decreased”.

The values are drawn from patent US20210147507A1, “METHODS TO AUGMENT OR ALTER SIGNAL TRANSDUCTION” (Bellicum Pharmaceuticals, Inc., priority 2017, published 2021).
